This is an account of results in US20110294982A1 (Ablynx, published 2011).

The target in assay [1] is T1, recombinant human alphavbeta6 (human, UniProt P06756 31-992; P18564 22-707, limits assumed).
T1 construct: Bought, carrier free (R&D Systems 3817-AV/CF); also called aVb6
The experiment in a line: specificity ELISA on coated integrins, periplasmic extract. On the technique in general: ELISA stands for enzyme-linked immunosorbent assay.

Assay [2] has as its target T2, recombinant VLA-5 (α5β1 integrin) (UniProt P08648 42-995; P05556 21-728, limits assumed).
T2 construct: also called α5β1 (VLA-5) integrin; a5β1 integrin
The experiment in a line: ELISA, integrin coated at 0.5 µg/well. On the procedure: FIG. 3: Direct binding of VHH-H6 to recombinant α3β1 integrin. Recombinant VLA-3 (α3β1 integrin) or recombinant VLA-5 (a5β1 integrin) were coated into Maxisorb plates at 0.5 μg/well, and binding with VHH-H6 or no VHH (in which anti-Myc was used) was assayed in ELISA. Binding of the VHHs to the integrins is expressed as absorbance at 450 nm. Data represents the mean±standard deviation of three independent experiments

T1 sequence (P06756 31-992 limits assumed, chain 1 of 2): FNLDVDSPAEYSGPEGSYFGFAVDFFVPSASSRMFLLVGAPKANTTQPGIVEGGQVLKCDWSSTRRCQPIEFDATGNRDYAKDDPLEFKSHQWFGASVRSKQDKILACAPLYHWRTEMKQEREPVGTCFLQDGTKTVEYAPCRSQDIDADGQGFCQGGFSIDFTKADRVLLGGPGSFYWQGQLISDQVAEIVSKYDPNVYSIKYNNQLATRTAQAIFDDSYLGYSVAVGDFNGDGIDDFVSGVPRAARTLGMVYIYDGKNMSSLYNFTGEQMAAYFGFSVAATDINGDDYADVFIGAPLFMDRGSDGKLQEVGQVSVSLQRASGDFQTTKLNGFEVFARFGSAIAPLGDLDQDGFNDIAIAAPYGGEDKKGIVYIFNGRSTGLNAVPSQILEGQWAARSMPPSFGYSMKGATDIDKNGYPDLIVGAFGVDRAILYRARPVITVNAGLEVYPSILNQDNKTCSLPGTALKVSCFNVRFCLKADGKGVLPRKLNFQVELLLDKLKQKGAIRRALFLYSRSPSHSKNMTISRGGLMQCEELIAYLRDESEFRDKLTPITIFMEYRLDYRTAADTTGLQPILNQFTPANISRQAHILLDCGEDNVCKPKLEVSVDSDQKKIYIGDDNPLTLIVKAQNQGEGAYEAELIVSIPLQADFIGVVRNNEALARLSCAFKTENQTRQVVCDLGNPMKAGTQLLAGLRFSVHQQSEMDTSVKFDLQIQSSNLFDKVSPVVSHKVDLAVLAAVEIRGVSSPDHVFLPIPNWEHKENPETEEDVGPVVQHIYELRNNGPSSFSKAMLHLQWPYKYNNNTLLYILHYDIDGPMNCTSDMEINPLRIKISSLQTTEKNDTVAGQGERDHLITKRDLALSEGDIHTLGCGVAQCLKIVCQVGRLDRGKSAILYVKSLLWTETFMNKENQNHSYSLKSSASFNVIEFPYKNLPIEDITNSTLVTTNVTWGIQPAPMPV
T1 sequence (P18564 22-707 limits assumed, chain 2 of 2): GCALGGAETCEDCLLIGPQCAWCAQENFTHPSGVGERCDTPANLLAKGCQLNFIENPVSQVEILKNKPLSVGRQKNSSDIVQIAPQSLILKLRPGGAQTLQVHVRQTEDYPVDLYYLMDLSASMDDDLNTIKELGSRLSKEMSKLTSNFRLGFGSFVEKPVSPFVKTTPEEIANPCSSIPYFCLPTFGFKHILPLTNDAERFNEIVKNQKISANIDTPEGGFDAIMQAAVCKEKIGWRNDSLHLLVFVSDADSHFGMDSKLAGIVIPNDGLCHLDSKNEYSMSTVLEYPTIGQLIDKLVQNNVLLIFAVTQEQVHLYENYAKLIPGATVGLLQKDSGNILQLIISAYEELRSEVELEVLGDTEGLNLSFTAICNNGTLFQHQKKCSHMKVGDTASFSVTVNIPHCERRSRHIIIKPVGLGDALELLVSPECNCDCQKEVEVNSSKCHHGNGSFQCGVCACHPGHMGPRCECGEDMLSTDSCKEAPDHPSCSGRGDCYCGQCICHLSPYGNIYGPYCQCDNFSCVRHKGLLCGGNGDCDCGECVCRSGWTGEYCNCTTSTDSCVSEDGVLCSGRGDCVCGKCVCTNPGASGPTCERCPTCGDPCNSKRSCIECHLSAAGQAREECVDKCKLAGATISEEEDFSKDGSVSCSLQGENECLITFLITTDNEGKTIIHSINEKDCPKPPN
T2 sequence (P08648 42-995 limits assumed, chain 1 of 2): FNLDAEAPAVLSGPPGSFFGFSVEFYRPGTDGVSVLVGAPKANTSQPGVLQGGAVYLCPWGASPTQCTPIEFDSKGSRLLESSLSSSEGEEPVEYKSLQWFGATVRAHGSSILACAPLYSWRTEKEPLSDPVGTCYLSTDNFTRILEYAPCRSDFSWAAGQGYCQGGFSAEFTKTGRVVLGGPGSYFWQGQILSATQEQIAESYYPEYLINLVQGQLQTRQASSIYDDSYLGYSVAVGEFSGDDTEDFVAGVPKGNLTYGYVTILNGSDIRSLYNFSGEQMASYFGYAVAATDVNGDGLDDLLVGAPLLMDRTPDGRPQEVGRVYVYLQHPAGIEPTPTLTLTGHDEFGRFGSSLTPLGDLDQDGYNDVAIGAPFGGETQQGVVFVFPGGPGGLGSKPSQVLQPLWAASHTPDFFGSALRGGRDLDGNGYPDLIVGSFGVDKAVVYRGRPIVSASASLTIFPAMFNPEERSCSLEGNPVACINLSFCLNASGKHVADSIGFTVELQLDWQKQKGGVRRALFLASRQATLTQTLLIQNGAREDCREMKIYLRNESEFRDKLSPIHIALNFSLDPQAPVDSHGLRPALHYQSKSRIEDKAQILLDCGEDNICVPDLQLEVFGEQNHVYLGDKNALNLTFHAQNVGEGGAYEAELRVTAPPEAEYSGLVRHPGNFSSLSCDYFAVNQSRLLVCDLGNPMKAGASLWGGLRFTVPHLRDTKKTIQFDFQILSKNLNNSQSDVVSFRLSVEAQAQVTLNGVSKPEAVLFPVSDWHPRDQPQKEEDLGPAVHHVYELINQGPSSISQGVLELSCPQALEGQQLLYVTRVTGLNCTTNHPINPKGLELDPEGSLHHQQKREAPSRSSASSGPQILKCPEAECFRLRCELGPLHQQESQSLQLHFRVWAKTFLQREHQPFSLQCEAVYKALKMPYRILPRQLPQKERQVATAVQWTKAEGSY
T2 sequence (P05556 21-728 limits assumed, chain 2 of 2): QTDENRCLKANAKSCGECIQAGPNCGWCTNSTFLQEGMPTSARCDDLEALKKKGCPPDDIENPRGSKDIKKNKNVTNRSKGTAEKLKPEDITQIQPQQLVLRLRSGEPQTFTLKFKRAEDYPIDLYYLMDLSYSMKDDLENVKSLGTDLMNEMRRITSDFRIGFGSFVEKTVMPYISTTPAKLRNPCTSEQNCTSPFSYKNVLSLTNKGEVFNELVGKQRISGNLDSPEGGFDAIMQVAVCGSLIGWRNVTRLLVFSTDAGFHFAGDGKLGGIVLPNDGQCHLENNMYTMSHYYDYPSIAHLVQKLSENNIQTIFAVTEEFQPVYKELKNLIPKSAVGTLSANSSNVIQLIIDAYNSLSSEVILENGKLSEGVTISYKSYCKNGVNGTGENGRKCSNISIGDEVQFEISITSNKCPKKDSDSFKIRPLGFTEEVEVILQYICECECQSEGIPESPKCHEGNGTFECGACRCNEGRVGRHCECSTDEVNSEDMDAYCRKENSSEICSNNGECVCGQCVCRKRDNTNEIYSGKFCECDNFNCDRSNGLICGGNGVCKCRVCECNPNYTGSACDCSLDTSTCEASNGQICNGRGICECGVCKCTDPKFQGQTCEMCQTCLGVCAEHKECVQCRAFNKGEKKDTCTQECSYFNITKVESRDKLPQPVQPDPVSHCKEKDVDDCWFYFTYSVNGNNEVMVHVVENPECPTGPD

B1: 140-G8 (VHH)
VHH: EVQLVESGGGSVQAGGSLRLSCTASGSIFSINDMGWYRQPPGEQRELVATLTSSDSTKYADSVKSRFTISRDNAKNTVYLQMNSLKPEDTAVYYCNAVINRRGDGRNWSREYWGQGTQVTVSS
Take B1: the binding result in assay [1] is “binds”.

B2: 140-D4 (VHH)
VHH: EVQLVESGGGLVEAGGSLRLSCATSGSTFGIEAMAWYRQAPGKQRELVATINSASRTNYADSVKGRFTISRDTGKSILYLQMNNLEPEDTAVYYCKITTPLPYRRDFWGQGTQVTVSS
For B2, the binding result in assay [1] is “binds”.

B3: 140-E10 (VHH)
VHH: EVQLVESGGGLVQAGESLKLSCVASGNILRVTSMGWGRQIPGKQRKLVAWITNEGRTEYADSVKGRFTISRDNAQNTLYLLMNSLKPEDTAVYYCYGFSPRESSGNTYWGQGTQVTVSS
Turning to B3, the binding result in assay [1] is “binds”.

B4: 140-A10 (VHH)
VHH: EVQLVESGGGLVQPGGSLRLSCAASGFTFSRMAMGWYRQAPGVERDFLAIISPGGGTNYADSVKGRFTISRDNAKNTVYLQMNSLKPEDTAVYYCNARNFEGRRVDYWGQGTQVTVSS
Take B4: the binding result in assay [1] was “binds”.

B5: 140-F10 (VHH)
VHH: EVQLVESGGGSVQAGGSLRLSCAASQRTFSSDVMGWFRQAPGKERDFVAYIHRSGTTYYADSVKGRLTISRDNAKSTVYLQMNSLKPEDTAVYHCAAGRYGSTSDTLYDYWGQGTQVTVSS
Turning to B5, in assay [1], the binding result is “binds”.

B6: 140-B8 (VHH)
VHH: EVQLVESGGGSVQAGGSLRLSCAASQRTFSRDVMGWFRQAPGKERDFVAYSHRSGTTYYADSVKGRFTISRDNAKSTVYLQMNSLKPEDTAVYHCAAGRYGSTSDTLYDYWGQGTQVTVSS
Take B6: the binding result in assay [1] is reported as “binds”.

B7: VHH-H6 (VHH)
VHH: QVQLQDSGGGLVQAGGSLRLSCEASGRTFSSYAMGWFRQPPGKEREWVSTISRSGSAIYAYPVKGRFTMSRDNAKNTVYLEMNSLKPEDTAVFYCAAARSGVPSSRPTDYDYWGQGTQVTVSS
notes: Used with a Myc tag (captured/detected with anti-Myc 9E10) and a C-terminal His6 tag (detected with anti-HIS6 (C-term)); also called H6-VHH
In the case of B7, the binding result in assay [2] was “no binding”.

B8: 140-A5 (VHH)
VHH: EVQLVESGGGSVQAGGSLRLSCAASGTTATITVPGWYRQAPGKQRELVAVINSGGTKKYADSVKGRFTISIDNVKRTLYLEMNSLRPEDTAVYYCSTLKYWGQGTQVTVSS
With B8, in assay [1], the binding result was “binds”.

B9: 140-H8 (VHH)
VHH: EVQLVESGGGLVQAGGSLRLSCAASISANAIDVVSWYRQAPGKPRELAASITSAGRIKYAESVKGRFGISRDNAKNTVSLQMNSLKPEDTAVYYCNALYRNAIYWGQGTQVTVSS
B9: in assay [1], the binding result was “binds”.

B10: 140-H10 (VHH)
VHH: EVPLVESGGGSVQAGGSLRLSCAASQRTFSRDVTGWFRQAPGKERDFVAYIHRSGETTYYADSVKGRFTISRDNAKSTVYLQMNSLKPEDTAVYHCAAGRYGSTSDTLYDYWGQGTQVTVSS
With B10, in assay [1], the binding result is on record as “binds”.

B11: 140-A2 (VHH)
VHH: EVQLVESGGGLVQAGGSLRLSCAASGSTYRLNNMAWYRQSPGKKRELVALISGITSDPSTYYLDSVRGRFSISRDNALNTVYLQMNSLKPEDTAVYYCKQAWAGVEYWGQGTQVTVSS
Turning to B11, the binding result in assay [1] is recorded as “binds”.
